Patent US20230089604A1, “ANTI-ADSORPTION SOLUTION” (Universiteit Gent, priority 2019, published 2023)

Key:
Type in all cases: physicochemical
[1] = Proof of concept (pivotal experiment): D-optimal design for the injection solvent and vial coating that minimize glass adsorption, UHPLC-MS/MS peak area
Experimental: 36 model peptides were selected for evaluation of the anti-adsorption diluent general functionality. The most suitable solvent composition and need of vial coating with the anti-adsorption diluent was evaluated via a D-optimal design model generated by Modde software (Umetrics, Umea, Sweden).
The peptides were analyzed at the concentration specified in Table 5. For model optimization, the analysis wizard was used. […] In the next step, the non-significant model terms (i.e. those not contributing to a higher R^2 and/or Q^2) were removed via the coefficient plot. Outliers in the residuals normal probability plot and the observed versus predicted plot were removed. The optimum was calculated using the optimizer tool of the Modde software.
Using the same UHPLC-MS/MS apparatus as previously described in the proof of principle, the column compartment was kept at 60° C. and the sample compartment at 10° C. respectively. […] The peptides analyzed using the HILIC amide or C18 column system are mentioned in Table 7. […]
To further investigate the wide applicability of this novel anti-adsorption diluent, 36 peptides were selected. […] The necessity of prior coating the vial with anti-adsorption diluent was also evaluated in the same D-optimal design model. Prior to this experiment, the LC-MS suitability of the anti-adsorption diluent was evaluated by injecting the anti-adsorption diluent as such. […]

[2] = Proof of principle (pilot experiment): peptide recovery over time in uncoated glass vial inserts, UHPLC-MS/MS; conditions: anti-adsorption diluent Source 1, 100 ng/mL, glass vial insert
Experimental: The peptide with amino acid sequence […] (SEQ ID No: 1) was stored in uncoated (U)HPLC vial inserts at a concentration of 100 ng/mL in 2 different solvents for a total of approximately 2 h. […] The vials were stored in the UHPLC autosampler compartment during analysis and at 0 min a vial containing solvent 1 and 100 ng/mL peptide was injected onto the UHPLC-MS/MS to serve as reference. The peptide recovery was calculated by dividing the peptide peak area of each time point and condition by the peptide peak area of sample 0 min in solvent 1. Appropriate blank samples were first subjected to the UHPLC-MS/MS for evaluation of interfering substances. This experiment was performed in uniplicate.
UHPLC-MS/MS of peptide […] was conducted with an Acquity H-class quaternary solvent manager, connected to an Acquity Xevo TQ-S triple quadrupole mass spectrometer (Waters, Milford, Mass., USA). The column compartment was kept at 45° C. and the sample compartment at 20° C. Mobile phase A consisted of water/acetonitrile/dimethylsulfoxide 90/5/5 V/V/V supplemented with 0.1% m/V formic acid and mobile phase B consisted of water/acetonitrile/dimethylsulfoxide 5/90/5 V/V/V supplemented with 0.1% m/V formic acid. Chromatography was performed with an Acquity UHPLC BEH300 C18 column (2.1×100 mm, 1.7 μm particle size) (Waters) protected with a suitable guard column. […]

[3] = Anti-adsorption diluent applicability for polypropylene inserts; conditions: 100 ng/mL, polypropylene insert, anti-adsorption diluent Source 1
Experimental: Anti-adsorption diluent applicability for polypropylene inserts. The functionality of the anti-adsorption diluent Source 1 in polypropylene inserts was evaluated via the peptide […] (100 ng/mL). The peptide was analyzed in (I) a glass insert with 50/50 V/V water/acetonitrile+0.1% m/V formic acid, (II) a polypropylene insert with 50/50 V/V water/acetonitrile+0.1% m/V formic acid, (III) a glass insert with anti-adsorption diluent Source 1, and (IV) a polypropylene insert with anti-adsorption diluent. The UHPLC-MS/MS method provided in the proof of principle experiment was applied. The experiment was performed in triplicate.
Previous experiments were all conducted using glass inserts. Plastic vials and inserts are also widely used for the chromatography of peptides. Therefore, the applicability of the anti-adsorption diluent was evaluated using a polypropylene insert. The peptide […] (100 ng/mL) was either analyzed using a glass or polypropylene insert with or without anti-adsorption diluent (see FIG. 11).

[4] = Functional evaluation of anti-adsorption diluent from 3 sources (consecutive transfer to 5 glass inserts); conditions: 100 ng/mL in 50/50 V/V water/acetonitrile + 0.1% m/V formic acid
Experimental: Functional evaluation of anti-adsorption diluent from 3 sources. The functionality of anti-adsorption diluent Source 1, Source 2, and Source 3 was evaluated via the peptide […] (SEQ ID No. 1). The peptide was diluted in either solvent (50/50 V/V water/acetonitrile supplemented with 0.1% m/V formic acid) or in 1 of the 3 anti-adsorption diluent sources to a peptide concentration of 100 ng/mL. The solution was either transferred to an insert and immediately analyzed via UHPLC-MS/MS or repeatedly transferred to inserts (5 inserts in total), with analysis of the 5th insert. UHPLC-MS/MS was carried out as previously discussed in the proof of principle (pilot experiment)-section. To prevent peptide degradation, each sample was prepared immediately prior to injection. Per condition 3 replicates were analyzed.
The pilot and pivotal experiments were carried out using anti-adsorption diluent originating from Source 1. Since Bovine Serum Albumin can differ amongst suppliers, anti-adsorption diluent was prepared originating from 3 sources, referred to as Source 1, Source 2, and Source 3. […] (100 ng/mL analytical concentration) was evaluated and (II) the peptide solution was repeatedly transferred from one insert to another (5 inserts in total) with subsequent analysis of the 5th insert. […]

[5] = Peptide stability by HPLC-PDA (0 h vs 3 h); conditions: 1 mg/mL, 3 h at 20° C.
Experimental: The 3 h peptide stability was evaluated by high performance liquid chromatography equipped with a photo diode array detector.
The peptide stability of peptide […] (SEQ ID No: 1) was evaluated with HPLC-PDA and the Vydac Everest C18 column. The analytical solution (1 mg/mL) in acetonitrile/water (V/V)+0.1% m/V formic acid (i.e. matching solvent composition as the anti-adsorption diluent without hydrolysate components) was chromatographed with the gradient provided in Table 3. Analysis was performed with a Waters Alliance 2695 HPLC with a Waters 2695 Separations Module, combined with a Flow Through Needle, and a Waters 2996 Photodiode Array Detector with Empower 2 software for data acquisition (Waters, Milford, Mass., USA).
The peptide was injected at 0 h and 3 h.

Sequence	Peptide peak area ([1]; 1 nM with anti-adsorption diluent Source 1, glass vial)	Peptide peak area ([1]; 1 nM without anti-adsorption diluent, glass vial)	Glass adsorption of the peptide when using the anti-adsorption diluent [2]	Increase of peptide peak area with anti-adsorption diluent compared to without [3]	Peptide peak area after transfer to 5 inserts, as % of peak area without transfer [4]	Additional peaks after 3 h incubation (0.5% reporting threshold) [5]
EQLSFTSIGILQLLTIGTRSCWFFYCRY (Q49) [Peptide Q49]	16772.4	1363.8				
MFPTIPLSRLFDNAMLRAH (Pilot peptide) [pilot experiment peptide]			completely abolished	approximately 30%	approximately 10%	No additional peaks
